# Reference: patent publication US10682388B2, “Targeting of PELP1 in cancer therapy” (THE BOARD OF REGENTS OF THE UNIVERSITY OF TEXAS SYSTEM, priority 2014, dated 2020)
# What was measured:
# [1] = molecular target: PELP1 (Homo sapiens, UniProt Q8IZL8); assay: Peptide pull-down assay, biotin-tagged peptides on avidin beads with nuclear lysates from ZR75 cells; type: binding; details: one hour, FIG. 1D
# Experimental: FIGS. 1A-D. (FIG. 1A) Diagram for yeast two hybrid screen to identify PELP1 binding peptides. Four regions of PELP1 were tagged with the binding domain and a library of 10^6 random peptides (Clontech) were bound to an activation domain. The number of positive colonies per region of PELP1 are shown in the graph. (FIG. 1B) A proliferation assay was performed with […]1 cells plated in a 96 well plate, treated with peptide every 3 days and absorbance was measured at 7 days. (FIG. 1C) ZR75 were plated in a 6-well plate on coverslips in 8% RPMI and treated with 10 uM FITC labeled peptide for 30, 60, or 120 minutes. They were then fixed with pararformaldehyde, stained for PELP1 (red) and DAPI (blue), and imaged by confocal microscopy to monitor intracellular delivery. (FIG. 1D) ZR75 cells were starved of estrogen for 72 hours and treated with estradiol 10^-7 M for 12 hours. Nuclear lysate was incubated with biotin-tagged peptides bound to avidin beads for one hour. Beads were washed, run on SDS-PAGE gel and probed for PELP1 expression. Input of nuclear lysate is shown as control. Peptides were linked to EZ-Link NHS-Biotin (Thermo Scientific) per manutfacturer's protocol. […] Beads were washed 3× with IP buffer (20 mM HEPES pH 7.9, 20% glycerol, 0.1% triton-x, 100 mM KCl), eluted with SDS-dye, and PELP1 expression was determined by western blotting. […]
# [2] = test system: ERE-luciferase in ZR75 cells; assay: ERE-luciferase reporter gene assay in ZR75 cells transfected with PELP1 and/or G9a; type: cell-based, Human; details: FIG. 2D
# Experimental: (§1) FIGS. 2A-D. (FIG. 2A) Immunoprecipitation was performed on nuclear lysates obtained from ZRPELP1 cells grown in 5% DCC for 72 hours and treated with estradiol 10^−7 M for 12 hours. PELP1 was immunoprecipitated and western blotting was performed for PELP1 and G9a expression with IgG as the control. (FIG. 2B) Various fragments of PELP1 bound to glutathione beads were incubated with recombinant G9a for 2 hours. Beads were washed, run on an SDS-PAGE gel and immunoblotted for G9a expression. GST tag alone is shown as control. (FIG. 2C) Recombinant G9a-GST was bound to glutathione beads and incubated with purified PELP1 and peptides for 2 hours. Beads were washed and run on SDS-PAGE gel. (FIG. 2D) ZR75 cells were transfected with ERE-luciferase, PELP1 and/or G9a plasmids and treated with peptide for 24 hours and estradiol 10^−7 M for 12 hours. Relative luciferase activity is shown.
# Model cells were seeded in 6-well plates. After overnight incubation, the cells were transfected with ERE-Luc plasmids using fugene for 6 h. Then, 24 hours after transfection, cells were incubated in 5% DCC media for estrogen starvation and then treated with TAT or PIP1/PIP2 for an additional 24 hours and estradiol (10^−8) for 12 hours. […] Luciferase activity was measured by using the luciferase assay system (Promega, Madison, Wis.).
# [3] = test system: ZR75PELP1KD and MCF7PEP1KD cells; assay: MTT proliferation assay in PELP1 knockdown cells; type: cell-based, Human; details: increasing doses 10, 20, or 50 μM, day 7, FIGS. 8A-B
# Experimental: FIGS. 8A-C. (FIG. 8A) ZR75PELP1KD cells were treated in triplicate with TAT or PIP1 (10, 20, or 50 μM) every 3 days and proliferation was measured by MTT assay on day 7. (FIG. 8B) MCF7PELP1KD cells were treated in triplicate with TAT or PIP1 (10, 20, or 50 μM) every 3 days and proliferation was measured by MTT assay on day 7. (FIG. 8C) MDAMB231 and MDAMB468 cells were treated in triplicate with TAT or PIP1 (10 μM) every 3 days and proliferation was measured by MTT assay on day 7. Cell proliferation rates were measured by using MTT Cell Viability Assay in 96-well plates. Model cells were seeded in 96-well plates (1×10^3 cells/well) in DMEM or RPMI medium containing 10% serum. After an overnight incubation, cells were treated with varying concentrations of the peptides for 3-7 days and growth inhibition was determined by using traditional MTT assay (Sigma) following manufacturer's instructions.
# [4] = molecular target: T1, PELP1-G9a complex (Homo sapiens, UniProt Q8IZL8); assay: In vitro peptide competition assay, G9a-GST on glutathione beads with purified PELP1; type: binding; details: peptides 2, 5, 10 μM, 2 hours, FIGS. 2C, 7B, 9
# T1 construct: purified bacterial, full-length PELP1; host or cells: bacteria (PELP1)
# Experimental: as §1
# FIGS. 7A-E. (FIG. 7A) Bacterial purified PELP1 was incubated with biotin-tagged peptides bound to avidin beads for one hour. Beads were washed, run on SDS-PAGE gel and probed for PELP1 expression. Input of bacterial PELP1 is shown as control. (FIG. 7B) Recombinant G9a-GST was bound to glutathione beads and incubated with purified PELP1 and peptides for 2 hours. Beads were washed and run on SDS-PAGE gel. (+2 μM, ++5 μM, +++10 μM). (FIG. 7C) ZRGST and ZRPELP1GST cells were transfected in triplicate with TopFlash β-catenin reporter and treated with TAT or PIP1 (10 μM) for 24 hours. Relative luciferase activity is shown. (FIG. 7D) MCF7vec and MCF7PELP1 cells were treated with TAT or PIP1 (10 μM) and toxicity was measured by CytoTox-Flour Cytotoxicity Assay. (FIG. 7E) ZR75 and ZR75PELP1 cells were treated with TAT, PIP1 or PIP2 for 24 hours and immunoblotted for PELP1 and ERα expression with actin as the loading control.
# FIG. 9. […]
# Peptides were linked to EZ-Link NHS-Biotin (Thermo Scientific) per manutfacturer's protocol. […] Beads were washed 3× with IP buffer (20 mM HEPES pH 7.9, 20% glycerol, 0.1% triton-x, 100 mM KCl), eluted with SDS-dye, and PELP1 expression was determined by western blotting. […]
# PELP1, sequence (Q8IZL8 whole entry, the tested form may be a part): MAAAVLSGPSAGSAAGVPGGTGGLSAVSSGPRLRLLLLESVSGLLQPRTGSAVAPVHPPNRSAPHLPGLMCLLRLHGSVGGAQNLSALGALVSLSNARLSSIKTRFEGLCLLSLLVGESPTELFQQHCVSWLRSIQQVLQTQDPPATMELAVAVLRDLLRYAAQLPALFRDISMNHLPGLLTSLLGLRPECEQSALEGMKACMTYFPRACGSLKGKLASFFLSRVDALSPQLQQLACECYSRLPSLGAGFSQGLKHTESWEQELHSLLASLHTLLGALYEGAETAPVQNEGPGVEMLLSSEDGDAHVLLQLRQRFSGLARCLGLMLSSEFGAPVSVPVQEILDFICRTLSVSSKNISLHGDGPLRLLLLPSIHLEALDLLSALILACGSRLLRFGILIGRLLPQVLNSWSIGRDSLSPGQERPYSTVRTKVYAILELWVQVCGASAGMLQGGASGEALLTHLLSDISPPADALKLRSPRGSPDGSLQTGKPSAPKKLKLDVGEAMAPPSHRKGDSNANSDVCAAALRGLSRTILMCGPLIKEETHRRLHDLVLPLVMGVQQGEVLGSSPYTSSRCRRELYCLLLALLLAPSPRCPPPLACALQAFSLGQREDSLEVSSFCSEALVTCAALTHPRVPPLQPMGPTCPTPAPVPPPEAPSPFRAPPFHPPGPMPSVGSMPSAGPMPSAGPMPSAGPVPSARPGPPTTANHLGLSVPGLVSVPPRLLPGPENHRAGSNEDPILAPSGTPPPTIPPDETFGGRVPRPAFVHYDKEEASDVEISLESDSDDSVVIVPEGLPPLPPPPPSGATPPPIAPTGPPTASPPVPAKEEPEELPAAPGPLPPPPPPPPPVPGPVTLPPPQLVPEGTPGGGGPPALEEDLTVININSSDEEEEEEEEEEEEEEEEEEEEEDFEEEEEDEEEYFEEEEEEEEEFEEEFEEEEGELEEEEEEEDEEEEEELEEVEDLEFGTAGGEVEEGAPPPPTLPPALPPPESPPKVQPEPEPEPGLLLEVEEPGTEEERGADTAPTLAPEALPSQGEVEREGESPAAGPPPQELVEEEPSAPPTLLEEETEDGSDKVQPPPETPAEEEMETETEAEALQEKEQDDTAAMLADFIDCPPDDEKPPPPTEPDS
# T1 sequence (Q8IZL8 2-1130, one chain of several): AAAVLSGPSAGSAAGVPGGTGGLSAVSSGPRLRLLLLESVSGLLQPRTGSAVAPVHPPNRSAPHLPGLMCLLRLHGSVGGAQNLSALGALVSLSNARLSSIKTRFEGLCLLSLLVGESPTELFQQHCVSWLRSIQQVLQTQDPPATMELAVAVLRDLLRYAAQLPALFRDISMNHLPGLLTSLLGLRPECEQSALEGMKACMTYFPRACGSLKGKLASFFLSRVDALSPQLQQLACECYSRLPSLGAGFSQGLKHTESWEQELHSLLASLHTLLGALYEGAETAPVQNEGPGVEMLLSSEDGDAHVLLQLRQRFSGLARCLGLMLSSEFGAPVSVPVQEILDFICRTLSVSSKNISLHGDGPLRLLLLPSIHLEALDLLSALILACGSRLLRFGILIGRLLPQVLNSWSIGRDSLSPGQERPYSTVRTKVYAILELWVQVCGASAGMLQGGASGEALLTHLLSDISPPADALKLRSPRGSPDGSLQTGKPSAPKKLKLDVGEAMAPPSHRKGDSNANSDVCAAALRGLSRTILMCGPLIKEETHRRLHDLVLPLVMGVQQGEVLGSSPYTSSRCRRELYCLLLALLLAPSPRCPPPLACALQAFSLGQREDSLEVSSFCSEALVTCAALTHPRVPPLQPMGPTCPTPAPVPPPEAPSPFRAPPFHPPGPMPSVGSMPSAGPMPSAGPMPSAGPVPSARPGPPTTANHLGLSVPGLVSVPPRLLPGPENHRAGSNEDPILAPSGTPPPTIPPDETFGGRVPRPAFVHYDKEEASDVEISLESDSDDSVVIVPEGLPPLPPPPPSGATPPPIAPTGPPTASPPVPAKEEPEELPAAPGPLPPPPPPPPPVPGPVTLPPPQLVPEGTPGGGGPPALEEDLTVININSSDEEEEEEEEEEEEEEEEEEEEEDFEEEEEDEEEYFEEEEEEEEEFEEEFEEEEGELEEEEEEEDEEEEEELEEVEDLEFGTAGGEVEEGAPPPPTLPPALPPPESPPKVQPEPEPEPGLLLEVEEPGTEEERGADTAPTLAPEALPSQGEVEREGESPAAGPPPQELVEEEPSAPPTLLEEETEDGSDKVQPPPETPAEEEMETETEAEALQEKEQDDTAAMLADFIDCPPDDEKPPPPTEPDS
sequence,measurement,setting,value
GRKKRRQRRRGGMVEFRWSCPGRRKAKA [PIP1],affinity to bind to PELP1 in peptide pull-down,[1],higher affinity to bind to PELP1 than PIP2
same,estrogen response synergistically activated by PELP1 and G9a (ERE-luciferase),[2],inhibited
same,proliferation in PELP1 knockdown cells,[3],only saw an effect at very high concentrations
same,disruption of PELP1 interaction with G9a/EHMT2,[4],disrupted by the addition of either of the two peptides in a dose-dependent manner
